By Km is commonly meant the concentration of substrate that gives half-maximal velocity.

These results are taken from patent publication US12168773B2, “Engineered phosphoenolpyruvate carboxylase enzymes” (The Regents of the University of California, priority 2019, dated 2024).

Data set [1] concerns Arabidopsis thaliana PPC1 (AtPPC1, C3 PEPC). Kind of data set: malate dehydrogenase coupled PEPC enzymatic assay, Arabidopsis C3 PPC1 and engineered variants. The note with it: for Km: 0-7.5 mM phosphoenolpyruvate, read-out: Km PEP; for Km / Vmax: 25° C, HEPES pH7.5. Format: biochemical. The text has this:
For both Arabidopsis C3 PPC1 (AtPPC1) and maize C4 PPC1 (ZmPPC1), the entire coding sequence for each was cloned into pET22b, which contains an amino-terminal 6×-HIS tag for protein purification, and expression was driven by the T7 promoter and lac operon. Relevant mutations were introduced by the Stratagene QuikChange mutagenesis kit using PCR amplification. Both wild type and mutant cDNA constructs were sequenced entirely following cloning into pet22b. Proteins were produced by growing transformed E. coli (BL21 CodonPlus) in autoinduction medium at 18° C. for 16 hours. Proteins were isolated by sonication of bacterial cells followed by passage over a nickel sepharose affinity column, elution with imidazole and separation on a GE SUPERDEX HILOAD 200 PG 16/60 all using an AKTA FPLC.
Enzyme analysis was conducted in vitro using protein that was generated by expression in E. coli using the pET22b vector. For expression, pET22b constructs were transformed into E. coli BL21-DE3 codon plus RIL cells and grown at 37° C. in autoinduction media until reaching an OD=1 after which these were transferred to 18° C. for 18 hours. Samples were collected and lysed by sonication. Protein was purified by passage through a His-trap nickel affinity column on an Akta FPLC and then eluted with 400 mM imidazole. Partially purified protein was then separated on an FPLC equipped with a HiPrep S200 size exclusion column (16/60) after which collected sample was concentrated by centrifugation to a final concentration of 4 mg/ml in 50% glycerol. Samples were stored at −20° C.
For enzymatic assays, a malate dehydrogenase coupled reaction was conducted with a range of substrate concentrations (0-7.5 mM phosphoenolpyruvate pyruvate) and a range of concentrations of allosteric inhibitor (0-50 mM malate). Assays were monitored using a Victor2 microplate reader at 25° C. Reactions consisted of […] PPC enzyme variants, 50 mM HEPES pH7.5, 10 mM MgCl2, 10 mM KHCO3 (carbonate substrate), 0.2 mM NADH, and 10 units/ml of malate dehydrogenase. Reaction time was 15 minutes and samples were measured on an ˜40 second interval. For measurement, which monitors loss of NADH, excitation wavelength was 340 nM and emission wavelength was 460 nM. From these assays, the enzyme kinetics of Tables 4-1 and 4-2 were determined for each enzyme variant.

In data set [2] the test system is transgenic Arabidopsis seedlings. Kind of data set: root growth analysis of transgenic Arabidopsis in the presence of aluminum. Type of data set: in vivo, Arabidopsis thaliana. The note with it: day 7, 20° C, soaked gel, aluminum toxicity equivalent to about 50-100 μM; versus plants expressing wt AtPPC1. The procedure:
Root growth was examined in transgenic Arabidopsis engineered to express wt AtPPC1, or a variant PEPC (G678S AtPPC1 or R886G AtPPC1) in a genotypic background devoid of expression of native AtPPC1. Seedlings from the transgenic Arabidopsis strains were grown at 20° C. in a soaked gel environment with aluminum toxicity equivalent to about 50-100 μM in the absence of agar. Root growth was assessed at day 7. […] This is consistent with the improved enzyme kinetics of the G678S AtPPC1 or R886G AtPPC1 enzymes described in Example 5.

B1: AtPPC1 G678S: engineered Arabidopsis thaliana PPC1 with G678S substitution (alr-128), SEQ ID NO:11 (protein)
chain: MANRKLEKMASIDVHLRQLVPGKVSEDDKLVEYDALLLDRFLDILQDLHGEDLRETVQELYEHSAEYEGKHEPKKLEELGSVLTSLDPGDSIVIAKAFSHMLNLANLAEEVQIAYRRRIKKLKKGDFVDESSATTESDLEETFKKLVGDLNKSPEEIFDALKNQTVDLVLTAHPTQSVRRSLLQKHGRIRDCLAQLYAKDITPDDKQELDEALQREIQAAFRTDEIKRTPPTPQDEMRAGMSYFHETIWKGVPKFLRRVDTALKNIGIEERVPYNAPLIQFSSWMGGDRDGNPRVTPEVTRDVCLLARMMAATMYFNQIEDLMFEMSMWRCNDELRARADEVHANSRKDAAKHYIEFWKSIPTTEPYRVILGDVRDKLYHTRERAHQLLSNGHSDVPVEATFINLEQFLEPLELCYRSLCSCGDRPIADGSLLDFLRQVSTFGLSLVRLDIRQESDRHTDVLDAITTHLDIGSYREWSEERRQEWLLSELSGKRPLFGSDLPKTEEIADVLDTFHVIAELPADSFGAYIISMATAPSDVLAVELLQRECRVKQPLRVVPLFEKLADLEAAPAAVARLFSVDWYKNRINGKQEVMIGYSDSGKDAGRLSAAWQLYKAQEELVKVAKEYGVKLTMFHGRGGTVGRGGGPTHLAILSQPPDTINGSLRVTVQGEVIEQSFSEEHLCFRTLQRFTAATLEHGMRPPISPKPEWRALLDEMAVVATEEYRSVVFQEPRFVEYFRLATPELEYGRMNIGSRPSKRKPSGGIESLRAIPWIFAWTQTRFHLPVWLGFGSAIRHVIEKDVRNLHMLQDMYQHWPFFRVTIDLIEMVFAKGDPGIAALYDKLLVSEELWPFGEKLRANFEETKKLILQTAGHKDLLEGDPYLKQRLRLRDSYITTLNVCQAYTLKRIRDPSYHVTLRPHISKEIAESSKPAKELIELNPTSEYAPGLEDTLILTMKGIAAGLQNTG
Consider B1, for which, in data set [1], the Michaelis constant (Km) is 433 ± 40 µM and the Vmax is listed as 17.784 ± 0.44 units/mg. Also, in data set [1] (Kcat/Km relative to wt AtPPC1), the “increase in catalytic efficiency over wt AtPPC1” value was ~5 fold. Besides, the “reduction in Km” value in data set [1] (compared with wt AtPPC1) amounted to 85%. Also, in data set [2], the “root growth in the presence of aluminum” value was “large increase”.

B2: AtPPC1 T778I: engineered Arabidopsis thaliana PPC1 with T778I substitution (alr-139), SEQ ID NO:12 (protein)
chain: MANRKLEKMASIDVHLRQLVPGKVSEDDKLVEYDALLLDRFLDILQDLHGEDLRETVQELYEHSAEYEGKHEPKKLEELGSVLTSLDPGDSIVIAKAFSHMLNLANLAEEVQIAYRRRIKKLKKGDFVDESSATTESDLEETFKKLVGDLNKSPEEIFDALKNQTVDLVLTAHPTQSVRRSLLQKHGRIRDCLAQLYAKDITPDDKQELDEALQREIQAAFRTDEIKRTPPTPQDEMRAGMSYFHETIWKGVPKFLRRVDTALKNIGIEERVPYNAPLIQFSSWMGGDRDGNPRVTPEVTRDVCLLARMMAATMYFNQIEDLMFEMSMWRCNDELRARADEVHANSRKDAAKHYIEFWKSIPTTEPYRVILGDVRDKLYHTRERAHQLLSNGHSDVPVEATFINLEQFLEPLELCYRSLCSCGDRPIADGSLLDFLRQVSTFGLSLVRLDIRQESDRHTDVLDAITTHLDIGSYREWSEERRQEWLLSELSGKRPLFGSDLPKTEEIADVLDTFHVIAELPADSFGAYIISMATAPSDVLAVELLQRECRVKQPLRVVPLFEKLADLEAAPAAVARLFSVDWYKNRINGKQEVMIGYSDSGKDAGRLSAAWQLYKAQEELVKVAKEYGVKLTMFHGRGGTVGRGGGPTHLAILSQPPDTINGSLRVTVQGEVIEQSFGEEHLCFRTLQRFTAATLEHGMRPPISPKPEWRALLDEMAVVATEEYRSVVFQEPRFVEYFRLATPELEYGRMNIGSRPSKRKPSGGIESLRAIPWIFAWIQTRFHLPVWLGFGSAIRHVIEKDVRNLHMLQDMYQHWPFFRVTIDLIEMVFAKGDPGIAALYDKLLVSEELWPFGEKLRANFEETKKLILQTAGHKDLLEGDPYLKQRLRLRDSYITTLNVCQAYTLKRIRDPSYHVTLRPHISKEIAESSKPAKELIELNPTSEYAPGLEDTLILTMKGIAAGLQNTG
As to B2, in data set [1], the Km came out at 1090 ± 27 µM and the Vmax came out at 14.738 ± 0.15 units/mg.

B3: AtPPC1 R886G: engineered Arabidopsis thaliana PPC1 enzyme with R886G substitution (protein, UniProt Q9MAH0 1-967, looked up, variant R886G)
Phosphoenolpyruvate …: MANRKLEKMASIDVHLRQLVPGKVSEDDKLVEYDALLLDRFLDILQDLHGEDLRETVQELYEHSAEYEGKHEPKKLEELGSVLTSLDPGDSIVIAKAFSHMLNLANLAEEVQIAYRRRIKKLKKGDFVDESSATTESDLEETFKKLVGDLNKSPEEIFDALKNQTVDLVLTAHPTQSVRRSLLQKHGRIRDCLAQLYAKDITPDDKQELDEALQREIQAAFRTDEIKRTPPTPQDEMRAGMSYFHETIWKGVPKFLRRVDTALKNIGIEERVPYNAPLIQFSSWMGGDRDGNPRVTPEVTRDVCLLARMMAATMYFNQIEDLMFEMSMWRCNDELRARADEVHANSRKDAAKHYIEFWKSIPTTEPYRVILGDVRDKLYHTRERAHQLLSNGHSDVPVEATFINLEQFLEPLELCYRSLCSCGDRPIADGSLLDFLRQVSTFGLSLVRLDIRQESDRHTDVLDAITTHLDIGSYREWSEERRQEWLLSELSGKRPLFGSDLPKTEEIADVLDTFHVIAELPADSFGAYIISMATAPSDVLAVELLQRECRVKQPLRVVPLFEKLADLEAAPAAVARLFSVDWYKNRINGKQEVMIGYSDSGKDAGRLSAAWQLYKAQEELVKVAKEYGVKLTMFHGRGGTVGRGGGPTHLAILSQPPDTINGSLRVTVQGEVIEQSFGEEHLCFRTLQRFTAATLEHGMRPPISPKPEWRALLDEMAVVATEEYRSVVFQEPRFVEYFRLATPELEYGRMNIGSRPSKRKPSGGIESLRAIPWIFAWTQTRFHLPVWLGFGSAIRHVIEKDVRNLHMLQDMYQHWPFFRVTIDLIEMVFAKGDPGIAALYDKLLVSEELWPFGEKLRANFEETKKLILQTAGHKDLLEGDPYLKQGLRLRDSYITTLNVCQAYTLKRIRDPSYHVTLRPHISKEIAESSKPAKELIELNPTSEYAPGLEDTLILTMKGIAAGLQNTG
Consider B3, for which, in data set [1], the Km came to 1110 ± 36 µM and the Vmax was determined as 12.586 ± 0.14 units/mg. Besides, in data set [2], the “root growth in the presence of aluminum” value is listed as “large increase”.

B4: AtPPC1 wild type: wild type Arabidopsis thaliana PPC1, C3 PEPC, SEQ ID NO:1 (protein)
chain: MANRKLEKMASIDVHLRQLVPGKVSEDDKLVEYDALLLDRFLDILQDLHGEDLRETVQELYEHSAEYEGKHEPKKLEELGSVLTSLDPGDSIVIAKAFSHMLNLANLAEEVQIAYRRRIKKLKKGDFVDESSATTESDLEETFKKLVGDLNKSPEEIFDALKNQTVDLVLTAHPTQSVRRSLLQKHGRIRDCLAQLYAKDITPDDKQELDEALQREIQAAFRTDEIKRTPPTPQDEMRAGMSYFHETIWKGVPKFLRRVDTALKNIGIEERVPYNAPLIQFSSWMGGDRDGNPRVTPEVTRDVCLLARMMAATMYFNQIEDLMFEMSMWRCNDELRARADEVHANSRKDAAKHYIEFWKSIPTTEPYRVILGDVRDKLYHTRERAHQLLSNGHSDVPVEATFINLEQFLEPLELCYRSLCSCGDRPIADGSLLDFLRQVSTFGLSLVRLDIRQESDRHTDVLDAITTHLDIGSYREWSEERRQEWLLSELSGKRPLFGSDLPKTEEIADVLDTFHVIAELPADSFGAYIISMATAPSDVLAVELLQRECRVKQPLRVVPLFEKLADLEAAPAAVARLFSVDWYKNRINGKQEVMIGYSDSGKDAGRLSAAWQLYKAQEELVKVAKEYGVKLTMFHGRGGTVGRGGGPTHLAILSQPPDTINGSLRVTVQGEVIEQSFGEEHLCFRTLQRFTAATLEHGMRPPISPKPEWRALLDEMAVVATEEYRSVVFQEPRFVEYFRLATPELEYGRMNIGSRPSKRKPSGGIESLRAIPWIFAWTQTRFHLPVWLGFGSAIRHVIEKDVRNLHMLQDMYQHWPFFRVTIDLIEMVFAKGDPGIAALYDKLLVSEELWPFGEKLRANFEETKKLILQTAGHKDLLEGDPYLKQRLRLRDSYITTLNVCQAYTLKRIRDPSYHVTLRPHISKEIAESSKPAKELIELNPTSEYAPGLEDTLILTMKGIAAGLQNTG
In the case of B4, in data set [1], the Km worked out at 2740 ± 166 µM and the Vmax came out at 24.992 ± 0.69 units/mg.
